Several values for one entry are separate records, joined by “and”; a condition that tells them apart may be missing. Identical values can stand only once.
Experiments:
[1] = target: T1, SAH6 (Rattus norvegicus, UniProt P31652, A505L/G278A/L99A); conditions: SAH6 vs wild-type SERT
[2] = target: T1, SAH6; test: [125I]-RTI55 saturation binding on membranes, SAH6; set-up: expressed in transfected cells; host or cells: T-REx-293 (HEK293) cells, membranes; conditions: read-out: apparent KD for [125I]-RTI55 binding
[3] = target: T2, SAH7 (Rattus norvegicus, UniProt P31652, A505L/L405A/P499A); test: [125I]-RTI55 saturation binding on membranes, SAH7; conditions: read-out: apparent KD for [125I]-RTI55 binding
T2 construct: expressed in transfected cells; host or cells: T-REx-293 (HEK293) cells, membranes

[4] = Thermostability assay of [125I]-RTI55-bound detergent-solubilised SERT (apparent Tm)
[5] = system: tetracycline-induced stable T-REx cell lines; test: [3H]-5HT uptake assay; format: cell-based; conditions: cell lines expressing cell surface-expressed mutant-GFP
[6] = system: T-REx-293 cells; test: Expression level of SERT-mCherry mutants transiently transfected into T-REx-293 cells; format: cell-based; conditions: relative to wild-type SERT = 100%; transient transfection
Procedure: (FIG. 3A) Comparison of [^125I]-RTI55 bound to 554 detergent-solubilised Ala/Leu mutants at either 4° C. or after heating at 30° C. for 30 minutes. The data relating to thermostability (the heated samples) have been normalized to the amount of wild-type SERT remaining after heating (40%; horizontal dashed line). The expression level of wild-type SERT is indicated by the vertical dashed line and the grey column (0-200 dpm) represents non-specific binding of [^125I]-RTI55 to the parental T-REx-HEK293 cell line (no SERT). Each data point represents binding to the equivalent of 50,000 cells measured in duplicate (estimated error is ±20% in dpm). […] (FIG. 3C) Amino acid sequence of SERT (SEQ ID NO: 1) showing the positions of the thermostabilising mutations (hatched) that consistently gave >1° C. increase in Tm compared to wild-type SERT; residues in bold and hatched were used to stabilize either SAH6 and/or SAH7. N-linked glycosylation sites are indicated by the hexagons, a putative disulphide bond is shown as a grey line and the N-terminal and C-terminal fusion partners are shown (c-Myc tag and the fluorescent reporter protein mCherry) are indicated.

[7] = system: T-REx-293 cells; test: Cell surface expression by confocal microscopy; format: cell-based; set-up: key: *: low expression; **: as wild-type SERT; ***: higher expression than wild-type SERT; conditions: estimation by eye of fluorescence upon confocal microscopy

ibogaine
decrease in affinity relative to wild-type SERT [1]: 4.5 fold

CN(C)CCCN1c2ccccc2CCc2ccccc21 [imipramine]
decrease in affinity relative to wild-type SERT [1]: 6.7 fold

COC(=O)[C@H]1C(c2ccc(I)cc2)C[C@@H]2CC[C@H]1N2C (stereo partly drawn) [[^125I]-RTI55, RTI55 (β-CIT)]
Kd [2]: 3.8 nM and 3.7 nM
Kd [3]: 1.3 nM and 1.2 nM and 1.5 nM

B1: wild-type SERT: cocaine-sensitive rat serotonin transporter, parent protein (protein, listed as Rattus sp.)
chain: METTPLNSQKVLSECKDREDCQENGVLQKGVPTTADRAEPSQISNGYSAVPSTSAGDEASHSIPAATTTLVAEIRQGERETWGKKMDFLLSVIGYAVDLGNIWRFPYICYQNGGGAFLLPYTIMAIFGGIPLFYMELALGQYHRNGCISIWRKICPIFKGIGYAICIIAFYIASYYNTIIAWALYYLISSLTDRLPWTSCTNSWNTGNCTNYFAQDNITWTLHSTSPAEEFYLRHVLQIHQSKGLQDLGTISWQLTLCIVLIFTVIYFSIWKGVKTSGKVVWVTATFPYIVLSVLLVRGATLPGAWRGVVFYLKPNWQKLLETGVWVDAAAQIFFSLGPGFGVLLAFASYNKFNNNCYQDALVTSVVNCMTSFVSGFVIFTVLGYMAEMRNEDVSEVAKDAGPSLLFITYAEAIANMPASTFFAIIFFLMLITLGLDSTFAGLEGVITAVLDEFPHIWAKRREWFVLIVVITCVLGSLLTLTSGGAYVVTLLEEYATGPAVLTVALIEAVAVSWFYGITQFCSDVKEMLGFSPGWFWRICWVAISPLFLLFIICSFLMSPPQLRLFQYNYPHWSIVLGYCIGMSSVICIPTYIIYRLISTPGTLKERIIKSITPETPTEIPCGDIRMNAV
amount of transporter remaining after heating ([4]; 30° C. for 30 minutes): 40%
Apparent Tm in 0.1% DDM ([4]; 125I-RTI55-bound detergent-solubilised SERT, apparent Tm ±1° C.): 28 °C
apparent Tm ([4]; [125I]-RTI55-bound, DDM-solubilised, 30 min heating): 28 °C
transporter remaining functional after heating ([4]; single-temperature assay, 28° C. for 30 minutes): approximately 40%

B2: SAH7: thermostabilised rat SERT triple mutant A505L+P499A+L405A (protein, UniProt P31652 1-630, looked up, variant A505L P499A L405A)
Sodium-dependent serotonin …: METTPLNSQKVLSECKDREDCQENGVLQKGVPTTADRAEPSQISNGYSAVPSTSAGDEASHSIPAATTTLVAEIRQGERETWGKKMDFLLSVIGYAVDLGNIWRFPYICYQNGGGAFLLPYTIMAIFGGIPLFYMELALGQYHRNGCISIWRKICPIFKGIGYAICIIAFYIASYYNTIIAWALYYLISSLTDRLPWTSCTNSWNTGNCTNYFAQDNITWTLHSTSPAEEFYLRHVLQIHQSKGLQDLGTISWQLTLCIVLIFTVIYFSIWKGVKTSGKVVWVTATFPYIVLSVLLVRGATLPGAWRGVVFYLKPNWQKLLETGVWVDAAAQIFFSLGPGFGVLLAFASYNKFNNNCYQDALVTSVVNCMTSFVSGFVIFTVLGYMAEMRNEDVSEVAKDAGPSALFITYAEAIANMPASTFFAIIFFLMLITLGLDSTFAGLEGVITAVLDEFPHIWAKRREWFVLIVVITCVLGSLLTLTSGGAYVVTLLEEYATGAAVLTVLLIEAVAVSWFYGITQFCSDVKEMLGFSPGWFWRICWVAISPLFLLFIICSFLMSPPQLRLFQYNYPHWSIVLGYCIGMSSVICIPTYIIYRLISTPGTLKERIIKSITPETPTEIPCGDIRMNAV
transport of [3H]-5HT into the cell [5]: no significant transport

B3: SAH6: thermostabilised rat SERT triple mutant A505L+L99A+G278A (protein, UniProt P31652 1-630, looked up, variant A505L L99A G278A)
Sodium-dependent serotonin …: METTPLNSQKVLSECKDREDCQENGVLQKGVPTTADRAEPSQISNGYSAVPSTSAGDEASHSIPAATTTLVAEIRQGERETWGKKMDFLLSVIGYAVDAGNIWRFPYICYQNGGGAFLLPYTIMAIFGGIPLFYMELALGQYHRNGCISIWRKICPIFKGIGYAICIIAFYIASYYNTIIAWALYYLISSLTDRLPWTSCTNSWNTGNCTNYFAQDNITWTLHSTSPAEEFYLRHVLQIHQSKGLQDLGTISWQLTLCIVLIFTVIYFSIWKGVKTSAKVVWVTATFPYIVLSVLLVRGATLPGAWRGVVFYLKPNWQKLLETGVWVDAAAQIFFSLGPGFGVLLAFASYNKFNNNCYQDALVTSVVNCMTSFVSGFVIFTVLGYMAEMRNEDVSEVAKDAGPSLLFITYAEAIANMPASTFFAIIFFLMLITLGLDSTFAGLEGVITAVLDEFPHIWAKRREWFVLIVVITCVLGSLLTLTSGGAYVVTLLEEYATGPAVLTVLLIEAVAVSWFYGITQFCSDVKEMLGFSPGWFWRICWVAISPLFLLFIICSFLMSPPQLRLFQYNYPHWSIVLGYCIGMSSVICIPTYIIYRLISTPGTLKERIIKSITPETPTEIPCGDIRMNAV
transport of [3H]-5HT into the cell [5]: no significant transport

B4: A505L: rat SERT single mutant A505L (protein)
chain: METTPLNSQKVLSECKDREDCQENGVLQKGVPTTADRAEPSQISNGYSAVPSTSAGDEASHSIPAATTTLVAEIRQGERETWGKKMDFLLSVIGYAVDLGNIWRFPYICYQNGGGAFLLPYTIMAIFGGIPLFYMELALGQYHRNGCISIWRKICPIFKGIGYAICIIAFYIASYYNTIIAWALYYLISSLTDRLPWTSCTNSWNTGNCTNYFAQDNITWTLHSTSPAEEFYLRHVLQIHQSKGLQDLGTISWQLTLCIVLIFTVIYFSIWKGVKTSGKVVWVTATFPYIVLSVLLVRGATLPGAWRGVVFYLKPNWQKLLETGVWVDAAAQIFFSLGPGFGVLLAFASYNKFNNNCYQDALVTSVVNCMTSFVSGFVIFTVLGYMAEMRNEDVSEVAKDAGPSLLFITYAEAIANMPASTFFAIIFFLMLITLGLDSTFAGLEGVITAVLDEFPHIWAKRREWFVLIVVITCVLGSLLTLTSGGAYVVTLLEEYATGPAVLTVLLIEAVAVSWFYGITQFCSDVKEMLGFSPGWFWRICWVAISPLFLLFIICSFLMSPPQLRLFQYNYPHWSIVLGYCIGMSSVICIPTYIIYRLISTPGTLKERIIKSITPETPTEIPCGDIRMNAV
Expression (%) SERT = 100% [6]: 175%
Cell surface expression [7]: ***

B5: G113A: rat SERT single mutant G113A (protein)
chain: METTPLNSQKVLSECKDREDCQENGVLQKGVPTTADRAEPSQISNGYSAVPSTSAGDEASHSIPAATTTLVAEIRQGERETWGKKMDFLLSVIGYAVDLGNIWRFPYICYQNAGGAFLLPYTIMAIFGGIPLFYMELALGQYHRNGCISIWRKICPIFKGIGYAICIIAFYIASYYNTIIAWALYYLISSLTDRLPWTSCTNSWNTGNCTNYFAQDNITWTLHSTSPAEEFYLRHVLQIHQSKGLQDLGTISWQLTLCIVLIFTVIYFSIWKGVKTSGKVVWVTATFPYIVLSVLLVRGATLPGAWRGVVFYLKPNWQKLLETGVWVDAAAQIFFSLGPGFGVLLAFASYNKFNNNCYQDALVTSVVNCMTSFVSGFVIFTVLGYMAEMRNEDVSEVAKDAGPSLLFITYAEAIANMPASTFFAIIFFLMLITLGLDSTFAGLEGVITAVLDEFPHIWAKRREWFVLIVVITCVLGSLLTLTSGGAYVVTLLEEYATGPAVLTVALIEAVAVSWFYGITQFCSDVKEMLGFSPGWFWRICWVAISPLFLLFIICSFLMSPPQLRLFQYNYPHWSIVLGYCIGMSSVICIPTYIIYRLISTPGTLKERIIKSITPETPTEIPCGDIRMNAV
Expression (%) SERT = 100% [6]: 42%
Cell surface expression [7]: **
